Laboratory results taken from patent US20250152727A1.

Biological target: recombinant human TfR1 (human) (UniProt P02786)
Assay: SPR (Carterra LSA), IgG captured on chip, TfR1 as analyte, 25 C

Chain of recombinant human TfR1 (human) (P02786 89-760 limits assumed): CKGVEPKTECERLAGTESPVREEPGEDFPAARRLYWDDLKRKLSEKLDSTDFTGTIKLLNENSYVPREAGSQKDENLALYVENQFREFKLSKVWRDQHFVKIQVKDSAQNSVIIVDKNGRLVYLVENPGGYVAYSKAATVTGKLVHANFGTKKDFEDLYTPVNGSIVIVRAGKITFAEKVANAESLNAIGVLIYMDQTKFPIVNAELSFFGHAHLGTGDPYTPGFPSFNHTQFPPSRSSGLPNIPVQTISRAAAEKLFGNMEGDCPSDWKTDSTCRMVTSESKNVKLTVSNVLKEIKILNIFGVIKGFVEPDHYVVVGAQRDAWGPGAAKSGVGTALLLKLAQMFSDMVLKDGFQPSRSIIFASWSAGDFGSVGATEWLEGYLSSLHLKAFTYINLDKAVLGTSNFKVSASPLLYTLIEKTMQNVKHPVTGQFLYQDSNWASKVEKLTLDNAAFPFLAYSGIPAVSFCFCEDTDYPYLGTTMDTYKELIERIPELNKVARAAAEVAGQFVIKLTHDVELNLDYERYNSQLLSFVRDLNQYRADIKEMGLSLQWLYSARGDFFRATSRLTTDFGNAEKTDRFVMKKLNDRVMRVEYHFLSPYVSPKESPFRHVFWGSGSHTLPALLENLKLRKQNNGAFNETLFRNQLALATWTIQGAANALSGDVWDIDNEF

Substance OKT9 mIgG (antibody) has a Kd of 0.536 nM.
